# From publication PMC314469, “Protein Interaction Networks by Proteome Peptide Scanning” (PLoS Biology, 2004)
# T1: Boi1 SH3 (BOI1_YEAST), P38041
# T1 chain: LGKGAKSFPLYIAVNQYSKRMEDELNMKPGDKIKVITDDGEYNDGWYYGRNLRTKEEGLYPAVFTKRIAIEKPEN
# T2: Boi2 SH3 (BOI2_YEAST), P39969
# T2 chain: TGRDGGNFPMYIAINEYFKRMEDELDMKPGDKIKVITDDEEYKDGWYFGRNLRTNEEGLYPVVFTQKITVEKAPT
# T3: Myo5 SH3 (MYO5_YEAST), Q04439
# T3 chain: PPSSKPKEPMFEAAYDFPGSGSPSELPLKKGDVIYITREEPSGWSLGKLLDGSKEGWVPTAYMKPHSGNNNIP
# T4: Rvs167 SH3 (RV167_YEAST), P39743
# T4 chain: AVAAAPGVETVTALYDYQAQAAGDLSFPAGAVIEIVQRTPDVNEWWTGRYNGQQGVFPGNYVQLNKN
# T5: Yfr024 SH3 (LSB3_YEAST), P43603
# T5 chain: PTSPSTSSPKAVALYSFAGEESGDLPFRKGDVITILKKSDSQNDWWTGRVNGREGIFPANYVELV
# T6: Yhr016c SH3 (YSC84_YEAST), P32793
# T6 chain: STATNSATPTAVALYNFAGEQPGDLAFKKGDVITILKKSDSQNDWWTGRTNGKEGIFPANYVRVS
# Columns and labels:
# Assay in all cases: SPOT array
# [1] = target: T1, Boi1 SH3 (BOI1_YEAST), P38041
# [2] = target: T2, Boi2 SH3 (BOI2_YEAST), P39969
# [3] = target: T3, Myo5 SH3 (MYO5_YEAST), Q04439
# [4] = target: T4, Rvs167 SH3 (RV167_YEAST), P39743
# [5] = target: Sho1 SH3 (SHO1_YEAST), P40073
# Sequence of Sho1 SH3 (SHO1_YEAST), P40073 (P40073 295-366): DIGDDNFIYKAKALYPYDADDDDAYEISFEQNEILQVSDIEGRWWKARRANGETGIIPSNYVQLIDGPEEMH
# [6] = target: T5, Yfr024 SH3 (LSB3_YEAST), P43603
# [7] = target: T6, Yhr016c SH3 (YSC84_YEAST), P32793
Binder,"normalised SPOT signal, Boehringer light units (BLU); mean over the file's lines of this peptide [1]","normalised SPOT signal, Boehringer light units (BLU); mean over the file's lines of this peptide [2]","normalised SPOT signal, Boehringer light units (BLU); mean over the file's lines of this peptide [3]","normalised SPOT signal, Boehringer light units (BLU); mean over the file's lines of this peptide [4]","normalised SPOT signal, Boehringer light units (BLU); mean over the file's lines of this peptide [5]","normalised SPOT signal, Boehringer light units (BLU); mean over the file's lines of this peptide [6]","normalised SPOT signal, Boehringer light units (BLU); mean over the file's lines of this peptide [7]"
KKNDRPSPLKPIQH [YKL101W 860-873],2190,0,341,49.2,67.4,254,44.4
KKNKKKVPLNPLAK [YNL050C 247-260],541,38,523,65.1,102,540,179
KKNPKKSPMGPQGA [YPL214C 146-159],725,66.4,1010,143,136,291,70.6
KKVIRNYPGHPEGT [YDR364C 152-165],582,24.6,418,29,64.4,34.3,14
KLHEKYFPDLPKEV [YDR527W 252-265],90.7,15.3,110,57.3,30.2,30.7,4.5
KLKIKILPEQPQLE [YDR407C 838-851],1350,0,261,56.9,548,6,17.7
KLNKRVLPSKPKKS [YLR183C 350-363],309,1.5,919,810,1390,2670,165
